Where two headings read alike, the source gives them in different places.
Experiments:
[1] = target: T1, human macrophage migration inhibitory factor (MIF) (human, UniProt P14174 2-115); assay: column 'Binds Human MIF'; method not stated
T1 construct: The off-rate columns and the bioassay columns say only 'MIF'; also called rhMIF; human MIF

[2] = target: T1, human macrophage migration inhibitory …; assay: cell-based or functional assay
[3] = target: T1, human macrophage migration inhibitory …; assay: cell-based or functional assay; remark: listed apart in the source
[4] = target: T1, human macrophage migration inhibitory …; assay: column 'Binds Human MIF'; method not stated; remark: listed apart in the source
[5] = target: T1, human macrophage migration inhibitory …; assay: cell-based or functional assay; remark: listed apart in the source
[6] = target: T1, human macrophage migration inhibitory …; assay: row 'human MIF Kd < 50 nm'; method not stated

T1 sequence (P14174 2-115 limits assumed): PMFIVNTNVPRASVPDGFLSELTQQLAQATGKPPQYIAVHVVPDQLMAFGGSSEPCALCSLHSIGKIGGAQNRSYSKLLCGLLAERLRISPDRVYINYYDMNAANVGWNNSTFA

Binder	Kd [1] [nM]	% MIF PPt Activity [2] [%]	MIF Stimulated SRE Transcription (% MIF Activity), 10 µg mab/ml [2] [%]	% MIF PPT Activity [3] [%]	Kd [4] [nM]	% MIF PPT Activity [5] [%]	MIF Stimulated SRE Transcription (% MIF Activity), 10 µg mab/ml [5] [%]	Kd [6] [nM]
anti-MIF monoclonal antibody 19B11-7 (antibody, V domains shown, Mouse hybridoma antibody from a MIF knockout mouse, purified from ascites) VH: QIQLVQSGPELKKPGETVKISCKASGYSFRNYGMNWVSQPPGKGLEWMGWINTYTGEPTYADDFKGRFAFSLDTSASTAYLTINNLKNEDTATYFCARSNYGNYFDYWGQGTTLTVSA VL: NIVLTQSPASLALSLGQRATISCRTSESVDSYASSFMHWYQQKPGQSPKLLIYLASNLESGVPARFSGSGSRTDFTLTIDPVEADDAATYYCQQSNEDPRTFGGGTQLEIKR	< 0.1	0	29	0	< 0.1	0	29	
anti-MIF monoclonal antibody 33G7-9 (antibody, V domains shown) VH: DVQLQESGPDLVKPSQSLSLTCSVTGYSITSGYYWNWIRQFPGNKLEWVGYLSYDGSKSHNPSLRNRISITRDPSKNQFFLKLNSVTTEDTATYYCARGGKIFYGSSYDPFAYWGQGTLVTVSS VL: DIQMTQSPASLSASVGETVTITCRASENIFNYLSWYQQKQGKSPQLLVYNVKTLTDGVPSRFSGSGSGTQFSLKINSLQPEDFGSYYCQHHYDTPYTFGRGTKLEIKR		67	5	67		67	5	
anti-MIF monoclonal antibody 29B12-1 (antibody, V domains shown) VH: EVKLVESGGGSVQPGGSLKLSCATSGFIFSDYYMYWVRQTPEKRLEWVAYISIGSGNTYYPDTVKGRFTISRDIAKNTLYLQMSRLKSEDTAMYYCVRGRLRFLFDYAMDYWGQGTSVTVSS VL: not shown		146	25	146		146	25	
anti-MIF monoclonal antibody 6B5-5 (antibody, V domains shown) VH: DVQLQESGPGLVKPSQSLSLTCTVTGSSITSDYAWHWIRQFPGNKLEWMGYISFSGSTGYNPSLKSRFSITRDTSKNQFFLQLNSVTTEDTATYYCAREAYGYDVGYFDYWGQGTTLTVSS VL: QIVLTQSPAIMSAFPGEKVTITCSASSSVSYMHWFQQKPGTSPKLWIYGTSNLASGVPVRFSGSGSGTSYSLTISRMEAEDAATYYCQQRSSYPWTFGGGTKLEIKR		82	36	82		82	36	
anti-MIF monoclonal antibody 10B11-3 (antibody, V domains shown, Mouse hybridoma antibody from a MIF knockout mouse, purified from ascites; also called Mab 10B11-3; 1OB11-3) VH: EVQLQQSGPELVKPGASVRISCKTSGYTITEYTMHWMKQSHEKSLEWIGGITPNTGVLSDNQKFRGKATLTVDKSSNTAYMELRSLTSADSAVYYCARRGNNYYGSSPWFAYWGQGTLVTVSA VL: DIQMTQSPASLSVSVGETVTITCRASENIYSNLAWYQQKQGKSPQLLVYAATNLADGVPSRFSGSGSGTQYSLNIYSLQPEDFGSYYCQHFWGTPYTFGGGTKLEIKR	< 0.1	136		136	< 0.1	136		< 0.1
anti-MIF monoclonal antibody 22F11-6 (antibody, V domains shown, Mouse hybridoma antibody from a MIF knockout mouse, purified from ascites; also called Mab 22F11-6) VH: EVKLEESGGGLVQPGGSMKLSCAASGFTFGDAWMYWVRQSPEKGLEWVAEIRSKAHNHATYYAESVKGRFTISRDDSKSSVYLQMSSLRAEDTGIYYCTSHHYGSSWYFDVWGAGTTVTVSS VL: DIQMTQSPASLSASVGETVTITCRASENIYSYLTWFQQKQGKSPQLLVYDAKTLAEGVPSSFSGSGSGTQFSLKIISLQPEHFGSYYCQHHYGRPYTFGGGTKLEIKR	< 0.1	65	42	65	< 0.1	65	42	< 0.1

From patent US7294753 (Biogen, dated 2007)
